These results are taken from US20020055130.

Data set [1] addresses T1, purified recombinant MEKK1 NH2-terminal fusion protein (50 kD) (UniProt P53349).
T1 sequence: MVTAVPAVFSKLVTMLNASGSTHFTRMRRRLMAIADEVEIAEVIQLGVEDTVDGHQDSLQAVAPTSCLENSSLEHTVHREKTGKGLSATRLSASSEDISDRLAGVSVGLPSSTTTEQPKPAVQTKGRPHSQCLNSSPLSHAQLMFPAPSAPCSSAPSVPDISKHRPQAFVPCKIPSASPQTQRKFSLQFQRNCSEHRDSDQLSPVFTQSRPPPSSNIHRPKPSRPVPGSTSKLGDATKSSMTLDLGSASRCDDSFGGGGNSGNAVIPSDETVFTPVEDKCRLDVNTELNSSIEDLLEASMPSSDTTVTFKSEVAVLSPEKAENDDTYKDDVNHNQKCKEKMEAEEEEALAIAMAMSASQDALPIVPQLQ

Data set [2] relates to purified recombinant catalytically inactive MEK-1.

For the substance “98 kD MEKK protein (98 kD MEKK1) of PC12, Rat1a, NIH3T3 and Swiss3T3 cells”, the “phosphorylation of the MEKK1 NH2-terminal fusion protein by immunoprecipitates (in vitro kinase assay)” value in data set [1] is “MEKK1 immunoprecipitated from lysates of EGF-stimulated and unstimulated PC12 cells robustly phosphorylated the inert 50 kD MEKK1 NH2-fusion protein”. Further, the “phosphorylation of kinase inactive MEK-1 by Mono Q fractions (in vitro kinase assay)” value in data set [2] is recorded as “Fractions 10-14 of lysate from PC 12 cells treated with EGF phosphorylated MEK-1”.
